Assay results from paper PMC3875231 (Nature, 2013).

Target: MalK, ATPase subunit of the maltose transporter (E. coli, UniProt P68187 1-371)
Test: crystal structure

Sequence of MalK, ATPase subunit of the maltose transporter (P68187 whole entry): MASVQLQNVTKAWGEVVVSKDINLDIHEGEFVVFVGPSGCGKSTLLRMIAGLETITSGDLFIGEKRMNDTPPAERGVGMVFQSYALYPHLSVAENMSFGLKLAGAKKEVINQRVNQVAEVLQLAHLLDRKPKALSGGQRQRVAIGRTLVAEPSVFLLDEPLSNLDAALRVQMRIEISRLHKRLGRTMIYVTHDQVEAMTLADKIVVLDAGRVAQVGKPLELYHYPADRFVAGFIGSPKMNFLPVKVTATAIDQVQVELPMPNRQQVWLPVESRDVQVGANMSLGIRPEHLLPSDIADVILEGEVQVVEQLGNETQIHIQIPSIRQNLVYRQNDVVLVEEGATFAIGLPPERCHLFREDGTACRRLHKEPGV

B1: glucose-specific enzyme IIA (EIIA^Glc), full-length (natural protein, E. coli, UniProt P69783 1-169, looked up)
chain: MGLFDKLKSLVSDDKKDTGTIEIIAPLSGEIVNIEDVPDVVFAEKIVGDGIAIKPTGNKMVAPVDGTIGKIFETNHAFSIESDSGVELFVHFGIDTVELKGEGFKRIAEEGQRVKVGDTVIEFDLPLLEEKAKSTLTPVVISNMDEIKELIKLSGSVTVGETPVIRIKK
B1: binds.
